Test results: the supplement of paper PMC10567573
± gives the standard deviation.

Test: protein stability index of a GFP-peptide fusion (GPS, HEK-293T) (PSI 1-6); higher = more stable
[1] = treatment: DMSO, c terminus: a fixed tail appended
[2] = treatment: MLN4924 1 uM, 8 h, c terminus: a fixed tail appended
[3] = treatment: DMSO, c terminus: native
[4] = treatment: MLN4924 1 uM, 8 h, c terminus: native
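Note: 24-mer peptide tiles fused after GFP, lentivirally expressed, FACS-sorted into six equal bins by GFP/DsRed ratio, decoded by Illumina sequencing, PSI is the read-weighted mean bin number.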

Row | Sequence | protein stability index [1] | protein stability index [2] | protein stability index [3] | protein stability index [4]
1 | YNHQHKYFFLIGPPALLPLYFQWY [FADS1] | 3.18 ± 0.66 | 2.38 ± 0.32 |  | 
2 | IFRCFCPVFLHSQMLWELVLLGEP [DENND6A] | 3.17 ± 0.39 | 2.87 ± 0.33 |  | 
3 | ITIGYRVYHSYDLPWFRTLSWYFL [CDS1] | 2.92 ± 0.42 | 3.1 ± 0.6 |  | 
4 | AQVPPAAPHHHHHHSHSGPEISRI [PLK2] | 4.09 ± 0.073 | 4.1 ± 0.13 |  | 
5 | HAVVEVEDVPLAAKLVDLPCVIES [TAF7L] | 3.86 ± 0.28 | 4.03 ± 0.17 |  | 
6 | LETSGNPNGRYGSGYLLASTPESE [SLC6A17] | 4.93 ± 0.14 | 4.91 ± 0.26 |  | 
7 | IAYYSYIYSVVDLGMYQKVTSYCR [SLC19A2] | 3.28 ± 0.38 | 2.62 ± 0.071 |  | 
8 | WGEMTLSLFSLLIAAAVYIMDTVG [SLC19A2] | 2.51 ± 0.44 | 2.46 ± 0.31 |  | 
9 | GDIHLSPEEPAASTDPNIVRKKER [TAF7L] | 5.38 ± 0.32 | 5.43 ± 0.27 |  | 
10 | EFPQFEPQRYPACAQMLPPNLSPH [TRAF3IP2] | 3.22 ± 0.18 | 3.1 ± 0.36 |  | 
11 | TGSTYNLSSGMAVAGMPTAYDLSS [CARM1] | 3.27 ± 0.21 | 3.42 ± 0.44 |  | 
12 | RLAQPSSPEVLTPQLSPGSGTPQA [RTN2] | 5.12 ± 0.12 | 4.96 ± 0.2 |  | 
13 | GDQEGPRPARSTLDELLGRGMATK [FBF1] | 4.62 ± 0.27 | 4.73 ± 0.11 |  | 
14 | EYTLTGLKFDMKYMNFRVKACNKA [FSD1] | 2.79 ± 0.12 | 2.77 ± 0.45 |  | 
15 | DGAGRTWQDSDTVKLLVDLELSYG [TOR1AIP2] | 2.37 ± 0.48 | 2.79 ± 0.43 |  | 
16 | LRADNAFMLLTQARLFDEPQLASL [BTBD1] | 2.46 ± 0.85 | 2.34 ± 0.47 |  | 
17 | NGTRVQEEPELVFTLGDCDVIQAL [FKBP8] | 3.72 ± 0.28 | 3.83 ± 0.17 |  | 
18 | LKLANHQRPVSRQVTCLRTQVLED [TRAF3IP2] | 3.49 ± 0.35 | 3.58 ± 0.27 |  | 
19 | KKHNVTAVVRLNKKIYEAKRFTDA [CDC14A] | 2.73 ± 0.2 | 2.49 ± 0.24 |  | 
20 | RKVLQAVHRGDGANPFQAYLDVDL [RTN2] | 3.21 ± 0.26 | 3.26 ± 0.19 |  | 
21 | WVCFIYTIMSLASLLFVVMFIPET [SLC2A12] | 3.06 ± 0.83 | 2.74 ± 0.52 |  | 
22 | NSTLDPHGHLILHSMHKYQPRIHL [TBX6] | 2.19 ± 0.17 | 2.34 ± 0.26 |  | 
23 | LSSVDMRMTSSPSSIPRRDDFFRH [RAD54B] | 3.21 ± 0.28 | 3.38 ± 0.34 |  | 

Row | Sequence | protein stability index [1] | protein stability index [2] | protein stability index [3] | protein stability index [4]
24 | KEDKIMLDDRKNEEDGGADEHEHP [MIA2] | 5.52 ± 0.063 | 5.55 ± 0.19 |  | 
25 | RLPWAGQLTKELPLSPAFFGEDGI [PBXIP1] | 3.43 ± 0.44 | 3.49 ± 0.28 |  | 
26 | PFVSAMPTPMPHNKGTRFSEAWEY [ZBED2] | 2.88 ± 0.23 | 2.94 ± 0.11 |  | 
27 | YLRFIVSRMKERAIDLNKKGKDNK [ZMYND11] | 2.63 ± 0.7 | 2.05 ± 0.3 |  | 
28 | DHLENVSKLVESGIQFMDEPEMAV [TRIM55] | 4.54 ± 0.45 | 4.75 ± 0.41 |  | 
29 | AGSTDDRIVVPQRGRSTRVPVASV [SPNS1] | 4.22 ± 0.077 | 4.39 ± 0.45 |  | 
30 | IVADIELENVLDPDSFYELKSQPL [TFE3] | 2.65 ± 0.47 | 3.09 ± 0.51 |  | 
31 | LTCSLSFLLCARSLLRGFLLQNEF [MCOLN1] | 3.34 ± 0.44 | 2.93 ± 0.46 |  | 
32 | DITEGDRKPDYTAYVAMIPQCIKE [ATF4] | 3.28 ± 0.27 | 3.38 ± 0.37 |  | 
33 | WVSTQLQATCNVHKSAFNDWFSGH [FADS1] | 2.75 ± 0.82 | 2.43 ± 0.54 |  | 
34 | RDPSLRPARTVLVGSLSWLRKQLQ | 2.75 ± 0.51 | 3.19 ± 0.48 |  | 
35 | RLWGIRKNRPAMNYDKLSRSIRQY [SPDEF] | 2.4 ± 0.25 | 2.4 ± 0.45 |  | 
36 | RRFSSEDLEDPLGGLLSYDEGGIT [FBF1] | 4.57 ± 0.21 | 4.56 ± 0.16 |  | 
37 | SMFTLPVVYVKHQAQIDQYLGLVR [RTN1] | 2.5 ± 0.49 | 2.23 ± 0.41 |  | 
38 | PGIDRPGMLCSFRIPGAWSCAWSL [DCAF4] | 3.32 ± 0.45 | 2.96 ± 0.61 |  | 
39 | DIKRGIPNYEFKLGKITFIRNSRP [UFD1] | 2.27 ± 0.17 | 2.34 ± 0.21 |  | 
40 | ILNLERDVEDLQRDKARLLREKVE [NFE2L1] | 3.96 ± 0.51 | 3.93 ± 0.41 |  | 
41 | VDSFETQRNGLVFIYDMCGSNYAN [PTPN9] | 2.23 ± 0.24 | 2.05 ± 0.28 |  | 
42 | REGDCAPEEKIWEELSVLEVFEGR [MAGEA3] | 5.08 ± 0.22 | 5.14 ± 0.11 |  | 
43 | AVEGAARTTPSRREITGVQAQPGE [PALM] | 5.22 ± 0.36 | 5.31 ± 0.28 |  | 
44 | LEELTKLQNNCTSSITRQKKRLQE [TMEM120A] | 4.81 ± 0.3 | 4.76 ± 0.31 |  | 
45 | QVENWSAFAPDFKELDENVEYEER [RBBP5] | 5.05 ± 0.36 | 5.15 ± 0.48 |  | 
46 | ANSSSEAPFPNVSTSLLTSAGNRT [ADAMTSL2] | 4.52 ± 0.36 | 4.49 ± 0.29 |  | 

Row | Sequence | protein stability index [1] | protein stability index [2] | protein stability index [3] | protein stability index [4]
47 | PLEPEDALSDAEFEGEGDYEEGMY [P3H4] | 5.59 ± 0.3 | 5.44 ± 0.34 |  | 
48 | SCSLVLEHQPDNIKALFRKGKVLA [FKBP8] | 2.76 ± 0.15 | 2.68 ± 0.26 |  | 
49 | TPEPDTCHELLGHVPLLAEPSFAQ [TPH1] | 3.96 ± 0.27 | 3.91 ± 0.2 |  | 
50 | LRADQEKERKKREERERKRRKEEE [FAF2] | 5.435 ± 0.02 | 5.35 ± 0.31 |  | 
51 | NKLQYHAGLASGLLNQQSLKRSAN [MED27] | 3.47 ± 0.25 | 3.51 ± 0.29 |  | 
52 | SEHVLKKAHKYSELIILYEKKGLH [VPS39] | 2.08 ± 0.23 | 2.27 ± 0.34 |  | 
53 | EQFPELMNMLWSRMLKDNKKNWRR [CLINT1] | 2.14 ± 0.037 | 2.39 ± 0.26 |  | 
54 | AAMLSMVKYNSCADRPFSAPWWFW [POMT2] | 2.31 ± 0.25 | 2.1 ± 0.31 |  | 
55 | GPFRTLLQFLYTGQLDEKEKDLVG [RHOBTB1] | 2 ± 0.054 | 2.49 ± 0.3 |  | 
56 | EAGYYFFNGNYKVDSPKNFNIAGT [ADAMTSL2] | 2.34 ± 0.35 | 2.44 ± 0.31 |  | 
57 | RERAVEWRERAVEKRERALEEVER [ZBED2] | 4.9 ± 0.71 | 5.08 ± 0.29 |  | 
58 | KNLFGPPLESAFDHEDFTGSSSLG [FCHO1] | 4.22 ± 0.13 | 4.37 ± 0.7 |  | 
59 | FPEELHRKAALEQDLAFWYGPRWQ [HMOX1] | 2.3 ± 0.25 | 2.62 ± 0.31 |  | 
60 | MSEWSECTAKCGERSVVTRDIRCS [ADAMTSL2] | 3.87 ± 0.45 | 3.74 ± 0.051 |  | 
61 | ITFPSLESCEEKNQLILTASADRT [WDR41] | 4.02 ± 0.29 | 4.1 ± 0.35 |  | 
62 | QLPIDRGGGEGKAMYIDTEGTFRP [RAD51] | 4.16 ± 0.15 | 4.05 ± 0.24 |  | 
63 | TAPRQEKHERTHEIIPINVNNNYE [SPRY1] | 4.68 ± 0.15 | 4.61 ± 0.38 |  | 
64 | PPATQNTFGNSTLALGPGESLPHR [PLAGL1] | 4.63 ± 0.34 | 4.39 ± 0.083 |  | 
65 | AIDQYRVCQEVLERSRDVVDEVSV [RHOBTB1] | 4.61 ± 0.21 | 4.32 ± 0.15 |  | 
66 | TWWIMFLSTFSVPYFLFQHWATGY [SOAT1] | 3.18 ± 0.29 | 2.77 ± 0.51 |  | 
67 | MLGYKRHLALHAASSGDLTCGVCA [PLAGL1] | 2.53 ± 0.23 | 2.73 ± 0.4 |  | 
68 | CATGLLGSAPFLFLSLACARGSIV [SPNS1] | 3.02 ± 0.21 | 2.88 ± 0.28 |  | 
69 | KVDGPRSPSYGRSRSRSRSRSRSR [SRSF1] | 5.27 ± 0.26 | 5.46 ± 0.14 |  | 

Row | Sequence | protein stability index [1] | protein stability index [2] | protein stability index [3] | protein stability index [4]
70 | LLPRQPLPLGIKVYEDETKVVHAV [PALM] | 3.47 ± 0.28 | 3.48 ± 0.12 |  | 
71 | RVRKEAMMGLAQIYKKYALQSAAG [PDS5B] | 2.2 ± 0.37 | 2.14 ± 0.34 |  | 
72 | PAWNSKLQYILAQIGFSVGLGNIW [SLC6A17] | 2.83 ± 0.45 | 2.47 ± 0.12 |  | 
73 | RSCAIVEDDGLQSAFTAAHELGHV [ADAMTS4] | 3.62 ± 0.43 | 3.55 ± 0.2 |  | 
74 | RLAQGNPQQGFFSSFFTCNQKCQL [ATP23] | 2.49 ± 0.45 | 2.53 ± 0.23 |  | 
75 | ECEKSALTPGFSDNAIMLFSPDFT [FAN1] | 3.49 ± 0.19 | 3.79 ± 0.26 |  | 
76 | TSGGSNIIYVASNHFVWRLIPVPM [VPS39] | 2.44 ± 0.36 | 2.51 ± 0.74 |  | 
77 | PAPKRGYSSEMKTEDELRVRHLEE [AUH] | 5.15 ± 0.48 | 4.75 ± 0.87 |  | 
78 | HYICTLKQPHLLLEKYSYYLISG [PNLIPRP1] |  |  | 3.31 ± 0.66 | 3.39 ± 0.14
79 | RTDPNGDYIRRYLPVLRGFPAKYI [CRY1] | 2.27 ± 0.3 | 2.42 ± 0.39 |  | 
80 | FKRWIYLNDQNLCIPASSSFVYGA [GAN] | 2.41 ± 0.37 | 2.47 ± 0.38 |  | 
81 | LQNQNFPYPVLFHNIFLLGGSSTS [NLN] | 2.15 ± 0.92 | 2.33 ± 0.4 |  | 
82 | RTALEYCKLILSLEPDEDPLCMLL [TCF25] | 2.24 ± 0.36 | 2.32 ± 0.3 |  | 
83 | DPPLSQDERTHRSDRPFKCNQCGK [ZNF8] | 5.01 ± 0.24 | 5.11 ± 0.14 |  | 
84 | EDEGFVREEEDRALPENEFKKQIW [KCNA4] | 5.18 ± 0.17 | 5.19 ± 0.2 |  | 
85 | VNYSDPNDADKAINTLNGLKLQTK [ELAVL3] | 4.66 ± 0.2 | 4.62 ± 0.12 |  | 
86 | NLAKEQLSRENIQSSLLETLYRNR [PPEF2] | 3.05 ± 0.28 | 3.22 ± 0.12 |  | 
87 | PSGNNGSVNWRTGSFHGPGHISLR [DLC1] | 3.09 ± 0.18 | 3.01 ± 0.19 |  | 
88 | GVSYTFDNEDSELNGDYGENIYPY [MIA2] | 3.93 ± 0.061 | 3.77 ± 0.55 |  | 
89 | LVLQTSEGKALQQYPSERELRGI [TRIM9] |  |  | 3.01 ± 0.96 | 2.98 ± 0.54
